Literature values, collected in US20080089848A1, “INTRATHECAL INJECTION OF MICROBUBBLES” (priority 2006, published 2008).

Legend:
[1] = infusion of tPA and microbubbles
stroke = details: intracisternal injection into the cisterna magna, rats

B1: tPA: thrombolytic agent (protein, UniProt P00750 36-562, looked up)
Tissue-type plasminogen …: SYQVICRDEKTQMIYQQHQSWLRPVLRSNRVEYCWCNSGRAQCHSVPVKSCSEPRCFNGGTCQQALYFSDFVCQCPEGFAGKCCEIDTRATCYEDQGISYRGTWSTAESGAECTNWNSSALAQKPYSGRRPDAIRLGLGNHNYCRNPDRDSKPWCYVFKAGKYSSEFCSTPACSEGNSDCYFGNGSAYRGTHSLTESGASCLPWNSMILIGKVYTAQNPSAQALGLGKHNYCRNPDGDAKPWCHVLKNRRLTWEYCDVPSCSTCGLRQYSQPQFRIKGGLFADIASHPWQAAIFAKHRRSPGERFLCGGILISSCWILSAAHCFQERFPPHHLTVILGRTYRVVPGEEEQKFEVEKYIVHKEFDDDTYDNDIALLQLKSDSSRCAQESSVVRTVCLPPADLQLPDWTECELSGYGKHEALSPFYSERLKEAHVRLYPSSRCTSQHLLNRTVTDNMLCAGDTRSGGPQANLHDACQGDSGGPLVCLNDGRMTLVGIISWGLGCGQKDVPGVYTKVTNYLDWIRDNMRP
clot lysis [1]: accelerate clot lysis

B2: BMP-7: bone morphogenetic protein (protein, UniProt P18075 293-431, looked up)
Bone morphogenetic protein 7: STGSKQRSQNRSKTPKNQEALRMANVAENSSSDQRQACKKHELYVSFRDLGWQDWIIAPEGYAAYYCEGECAFPLNSYMNATNHAIVQTLVHFINPETVPKPCCAPTQLNAISVLYFDDSSNVILKKYRNMVVRACGCH
functional recovery of neurons after stroke (stroke): promotes functional recovery
